Reference: US20040176567A1, “Modified calcitonin” (priority 2001, published 2004)
Marks after values point to notes of the source that are not given here. Each block holds one substance with its values, some of them ahead of it. Bridge positions count the residues as written; N and C are the ends. Ends that are not written are not given here.

Tests used:
[1] = Secondary structure (helical content) by circular dichroism; format: physicochemical; settings: for Helical content compared with hCT: neutral and low pH (7.0 and 3.0); for Helical content by CD: neutral pH (7.0), 25° C., ellipticity at 222 nm
Method: FIG. 2. Secondary structure of calcitonin peptides measured by circular dichroism. Experiments reflect the thermal denaturation profile of the peptides at pH 7.0 and 3.0 respectively. Ellipticity was measured at 222 nm and reflects the α-helical content of the peptides. Helical content based on CD spectra calculations (25° C.) according to Chen et al. (1974). Biochemistry 13, 3350-59.
Circular dichroism and Nuclear magnetic resonance were used to characterise the structural properties of human (hCT), salmon (sCT) and 6 chR (6 chR) calcitonin. Peptide concentration was estimated by amino acid analysis.

T47D (HTB 133) cells = assay: Calcitonin activity by cyclic AMP intracellular accumulation; format: cell-based, Human; settings: for cAMP stimulation compared with basal levels: saturation concentration 1·10^−6 M, 15 min at 37° C., T47D cells
Description: Activity tests may be carried out in suitable animal models using, for example chickens or mice. Activity can also be monitored in vitro, for example in cellular cultures. LLC-PKI kidney cells may be used, for which calcitonin has been reported to increase alkaline phosphatase activity and cAMP levels Wohlwend A et al (1985) Biochem Biophys Commen 131 537-542, Miyamoto K. I. et al (1998) Jpn. J. Pharmacol 76.193-198. […] We used a combination of two previously described systems with some modifications (Zimmerman, U. et al, 1997, J. Endocrinol. 155, 423-431; Miyamoto, K. I. et al, 1998, Jpn. J. Pharmacol 76, 193-198). Human ductal carcinoma T47D (HTB 133) cells were used for the assays.
T47D (HTB 133) cells were purchased from the American Type Culture Collection (ATCC) and grown in RPMI-1640 modified medium (ATCC) containing 2 mM L-glutamine, 10 mM HEPES, 1 mM sodium pyruvate, 4.5 g/L glucose and 1.5 g/L sodium bicarbonate. This medium was supplemented with 10% heat-inactivated fetal calf serum, 25 μg/mL gentamycin and 100 nM dexamethasone, this last to enhance the expression of calcitonin receptors. Cells were grown in a humidified atmosphere of 95% air-5% CO2 at 37° C.
Cyclic AMP (cAMP) accumulation was used to measure the degree of stimulation upon incubation in the presence of different calcitonin peptides. Typically cells were grown in multi-well plates until confluency was reached and then washed with pre-heated DPBS-glucose (Gibco, Invitrogen) to remove any traces of fetal serum. Sample solutions were prepared by dissolving different amounts of hCT, sCT and 6 chR (6 CT) in DPBS-glucose supplemented with 0.1% BSA and 1 mM IBMX (3-isobuthyl-1-methylxanthine). After being washed, cells were incubated for 15 min at 37° C. in the presence of the peptide solutions. Medium was then removed by aspiration and cells were rapidly frozen on dry-ice and then kept at −80° C. until cAMP measurements were carried out.
Cyclic AMP content of different samples was measured using a commercial AMP enzyme immunoassay (EIA) system (Biotrak, Amersham-Biotech) according to manufacturer's specifications. Different dilutions of cellular extracts were measured in order to cover the whole range of stimulation caused by calcitonin incubation. Saturation concentrations (1·10^−6 M) of the three peptides (hCT, sCT & 6chR) were used to establish the maximum capacity of stimulation for each one of the different sequences. […] All three peptides show clear stimulation effects confirming the calcitonin-like activity of the engineered 6 chR (6 CT) peptide.

[2] = Aggregation studies, turbidity at 340 nm; format: physicochemical; settings: for Aggregation time (turbidity at 340 nm) / Aggregation time (development of turbidity at 340 nm) / Aggregation time (half time, turbidity at 340 nm): 37° C., pH 7.2
Method: Aggregation analysis was carried out as reported previously (Arvinte, T. et al., 1993, J. Biol. Chem, 268, 6415-6422) using PBS 5 mM sodium phosphate, 145 mM NaCl, pH 7.2. (sodium phosphate saline buffer) pH 7.2 and adding a minor amount of sodium azide to prevent bacterial growth (0.1%). Samples were always incubated at 37° C.
Aggregation was monitored by measuring turbidity at 340 nm. Different concentrations of peptide were tested.

[3] = target: calcitonin receptors on human ductal carcinoma T47D (HTB 133) cells (human) (UniProt P30988); assay: cell-based or functional assay; settings: scale: orders of magnitude compared with the basal levels
Sequence of UniProt P30988 (P30988 25-474, stated change not applied): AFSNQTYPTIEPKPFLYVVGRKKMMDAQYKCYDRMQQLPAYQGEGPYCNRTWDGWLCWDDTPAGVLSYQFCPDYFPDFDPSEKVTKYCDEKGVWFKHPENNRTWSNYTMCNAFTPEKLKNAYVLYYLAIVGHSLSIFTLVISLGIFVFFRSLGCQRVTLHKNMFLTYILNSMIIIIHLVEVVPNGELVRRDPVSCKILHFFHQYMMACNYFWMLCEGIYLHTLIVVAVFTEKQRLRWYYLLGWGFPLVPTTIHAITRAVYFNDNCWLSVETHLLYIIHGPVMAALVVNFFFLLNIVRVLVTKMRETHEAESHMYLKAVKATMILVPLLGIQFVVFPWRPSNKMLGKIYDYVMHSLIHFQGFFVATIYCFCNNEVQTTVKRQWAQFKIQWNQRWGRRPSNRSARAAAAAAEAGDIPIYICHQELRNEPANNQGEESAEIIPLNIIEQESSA

Substance: CGNLSTCMLGKLTQELRKLHTFPQTAIGVGAP (disulfide 1-7; ends not checked) [6chR]
Helical content compared with hCT [1]: enhanced helical content
Helical content by CD [1]: 21.1%
cAMP stimulation effect compared with hCT and sCT (T47D (HTB 133) cells; 1·10^−6 M, T47D cells (FIG. 3)): clearly higher than that of the hCT and even the sCT peptide
cAMP stimulation compared with basal levels (T47D (HTB 133) cells): close to three orders of magnitude
Time required to aggregate relative to the human peptide [2]: at least two orders of magnitude larger
Aggregation time (turbidity at 340 nm) ([2]; 1 mg/mL filtered 0.5 μm, no aggregation detected at the end of the experiment): (>10 months)^c
Aggregation time (turbidity at 340 nm) ([2]; 10 mM (~35 mg/mL) unfiltered): 18 days
Aggregation time (turbidity at 340 nm) ([2]; 10 mg/mL filtered 0.5 μm, no aggregation detected at the end of the experiment): (>10 months)^c
Aggregation time (turbidity at 340 nm) ([2]; 10 mg/mL unfiltered, no aggregation detected at the end of the experiment): (>10 months)^c
Aggregation behaviour compared with human calcitonin (FIG. 1) ([2]; 35 mg/mL, solutions not filtered): aggregates much more slowly than the human form
Time without detectable aggregation ([2]; concentrations of 10 mg/mL or below, unfiltered and filtered solutions): > 10 months

Substance: CGNLSTCMLGTYTQDFNKFHTFPQTAIGVGAP [Human, reference compound]
Helical content by CD [1]: 11.3%
cAMP stimulation compared with basal levels (T47D (HTB 133) cells): close to three orders of magnitude
Aggregation time (development of turbidity at 340 nm) ([2]; 1 mg/mL filtered 0.5 μm): ˜45 days
Aggregation time (half time, turbidity at 340 nm) ([2]; 10 mM (~35 mg/mL) unfiltered): 4 h
Aggregation time (development of turbidity at 340 nm) ([2]; 10 mg/mL filtered 0.5 μm): ˜26 days
Aggregation time (half time, turbidity at 340 nm) ([2]; 10 mg/mL unfiltered): ˜30 hours

Substance: CSNLSTCVLGKLSQELHKLQTYPRTNTGSGTP [Salmon-1]
Helical content compared with hCT [1]: higher helical content than hCT
Helical content by CD [1]: 22.5%
cAMP stimulation compared with basal levels (T47D (HTB 133) cells): close to three orders of magnitude

intracellular cAMP accumulation in T47D cells, peptide at saturation concentration 1·10^-6 M, 15 min, cAMP EIA [3]: 3
Substance: salmon calcitonin (from UniProt P01263 83-114) (peptide)
